This is an account of results in patent US20260265360A1 (NEURACLE SCIENCE, published 2026).

As a reminder, the Kd is the constant that tells how readily two partners part at equilibrium.

For assay [1], the target named is T1, FAM19A5 epitope fragment F2, BSA-conjugated (human, conjugated to BSA).
T1 peptide: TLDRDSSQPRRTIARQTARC
The assay can be described thus: ELISA, plate-coated BSA-conjugated FAM19A5 fragments F1-F6 (data not shown). The procedure: Binding of the different anti-FAM19A5 antibodies to the BSA-conjugated peptide fragments F1-F6 was determined by Western blot analysis or ELISA assay. For the Western blot analysis, BSA-conjugated FAM19A5 fragments F1-F6 were separated by SDS polyacrylamide gel electrophoresis and transferred to a nitrocellulose membrane by the standard procedure. The membrane was incubated with the anti-FAM19A5 antibody (e.g., 1-65, […], 1-65-scFv-rabbit Fc-SSS), and the antigen-antibody complexes were detected with the appropriate secondary antibody conjugated with horse-radish peroxidase (anti-rabbit IgG (Fc specific)-HRP, 1:4000 dilution). For the ELISA assay, the following protocol was used. FAM19A5 fragment F1-F6 (diluted to 1 μg/mL in 50 mM carbonate buffer (Biosesang) or to 20 μg/mL for high concentration analysis) were used to coat the wells of 96-well immuno plates (Thermo Scientific) (100 μL/well) overnight at 4° C. and then subsequently washed twice in 1×PBS. The plates were then blocked with the blocking buffer (100 μL/well) for 1 hour at room temperature. […] The absorption value of each of the wells was detected at 492 nm using a 96-well microplate reader (Molecular Device).
(§1) As shown in FIGS. 19 and 20A, the anti-FAM19A5 antibody 1-65 bound strongly to fragment F5 as measured by both Western Blot and ELISA assay, respectively.

Another assay deals with T2, F2-04-BSA (#4) (human, conjugated to BSA).
T2 construct: already contained in the entry; also called mutant F2 peptide fragment #4
T2 peptide: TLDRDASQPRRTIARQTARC
As to the kind of experiment: ELISA, plate-coated F2 mutant peptides (BSA-conjugated). In general terms: An ELISA detects its analyte on a solid surface through an enzyme-linked reagent.

A further assay deals with T3, F2-06-BSA (#6) (human, conjugated to BSA).
T3 construct: already contained in the entry; also called mutant F2 peptide fragment #6
T3 peptide: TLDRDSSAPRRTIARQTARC
Described as above.

The target of the next assay is T4, F2-10-BSA (#10) (human, conjugated to BSA).
T4 construct: already contained in the entry; also called mutant F2 peptide fragment #10
T4 peptide: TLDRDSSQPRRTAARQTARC
The assay is described as above.

The next assay concerns the target T5, F2-12-BSA (#12) (human, conjugated to BSA).
T5 construct: already contained in the entry; also called mutant F2 peptide fragment #12
T5 peptide: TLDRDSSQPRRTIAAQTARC
The assay is described as above.

Another assay concerns the target T6, F2-09-BSA (#9) (human, conjugated to BSA).
T6 construct: already contained in the entry; also called mutant F2 peptide fragment #9
T6 peptide: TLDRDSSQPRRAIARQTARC
Described as above.

For another assay, the target named is T7, F2-01-BSA (#1) (human, conjugated to BSA).
T7 construct: already contained in the entry; also called mutant F2 peptide fragment #1
T7 peptide: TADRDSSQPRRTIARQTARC
Described as above.

The next assay concerns the target T8, F2-05-BSA (#5) (human, conjugated to BSA).
T8 construct: already contained in the entry; also called mutant F2 peptide fragment #5
T8 peptide: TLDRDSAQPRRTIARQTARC
The assay is described as above.

For another assay, the target named is T9, F2-13-BSA (#13) (human, conjugated to BSA).
T9 construct: already contained in the entry; also called mutant F2 peptide fragment #13
T9 peptide: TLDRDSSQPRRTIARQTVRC
Described as above.

A further assay deals with T10, F2-08-BSA (#8) (human, conjugated to BSA).
T10 construct: already contained in the entry; also called mutant F2 peptide fragment #8
T10 peptide: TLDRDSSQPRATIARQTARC
The assay is described as above.

Another assay deals with T11, F2-02-BSA (#2) (human, conjugated to BSA).
T11 construct: already contained in the entry; also called mutant F2 peptide fragment #2
T11 peptide: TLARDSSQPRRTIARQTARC
The description is as above.

The target of a further assay is T12, F2-07-BSA (#7) (human, conjugated to BSA).
T12 construct: already contained in the entry; also called mutant F2 peptide fragment #7
T12 peptide: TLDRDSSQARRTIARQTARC
The assay is described as above.

Another assay deals with T13, FAM19A5 mutant M2 (human).
T13 chain: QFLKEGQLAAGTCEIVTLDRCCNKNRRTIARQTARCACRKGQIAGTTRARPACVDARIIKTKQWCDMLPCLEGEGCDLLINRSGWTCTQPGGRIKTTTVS
As to the kind of experiment: ELISA on phage-expressed FAM19A5 mutants M1-M8.

The target of assay [2] is T14, Human FAM19A5 protein (Wild Type) (human, UniProt Q7Z5A7 44-132).
T14 construct: also called FAM19A5 antigen; TAFA5
The assay can be described thus: value given in the HDX-MS sample preparation; method of its determination not stated.

Assay [3] deals with T15, FAM19A5 epitope fragment F6, BSA-conjugated (human, conjugated to BSA).
T15 peptide: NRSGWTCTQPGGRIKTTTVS
The assay can be described thus: ELISA, plate-coated BSA-conjugated FAM19A5 fragments F1-F6. The procedure: (§2) Binding of the different anti-FAM19A5 antibodies to the BSA-conjugated peptide fragments F1-F6 was determined by Western blot analysis or ELISA assay. For the Western blot analysis, BSA-conjugated FAM19A5 fragments F1-F6 were separated by SDS polyacrylamide gel electrophoresis and transferred to a nitrocellulose membrane by the standard procedure. The membrane was incubated with the anti-FAM19A5 antibody (e.g., 1-65, […], 1-65-scFv-rabbit Fc-SSS), and the antigen-antibody complexes were detected with the appropriate secondary antibody conjugated with horse-radish peroxidase (anti-rabbit IgG (Fc specific)-HRP, 1:4000 dilution). For the ELISA assay, the following protocol was used. FAM19A5 fragment F1-F6 (diluted to 1 μg/mL in 50 mM carbonate buffer (Biosesang) or to 20 μg/mL for high concentration analysis) were used to coat the wells of 96-well immuno plates (Thermo Scientific) (100 μL/well) overnight at 4° C. and then subsequently washed twice in 1×PBS. The plates were then blocked with the blocking buffer (100 μL/well) for 1 hour at room temperature. During the 1-hour incubation, the relavant anti-FAM19A5 antibodies were diluted to 1 μg/mL (or 20 μg/mL for high concentration analysis) in the diluent buffer. Once the plates were washed (2× using 1×PBS), the diluted anti-FAM19A5 antibodies were added to the appropriate wells, and the plates were incubated at room temperature for 1 hour. The plates were subsequently washed for a total of five times using the washing buffer. Next, the ODP substrate (prepared by dissolving one ODP tablet (O-phenylenediamine Dihydrochloride, Thermo) into 9 mL of sterilized deionized water and 1 mL of 10× stable Peroxide Stable buffer (Theromo)) was added to each of the wells, and the color change reaction was allowed to occur for 10 minutes. This reaction was stopped by adding 100 μL of 2N H2SO4 (Daejung) to the wells. The absorption value of each of the wells was detected at 492 nm using a 96-well microplate reader (Molecular Device).
as §1

The target in assay [4] is T16, FAM19A5 epitope fragment F1, BSA-conjugated (human, also: conjugated to BSA).
T16 construct: which number belongs to which fragment is not spelled out
T16 peptide: QLAAGTCEIVTLDR
The description is as above. How it is done: as §2, §1

For assay [5], the target named is T1, FAM19A5 epitope fragment F2, …. Described as above. How it is done:
as §2, §1

Assay [6] has as its target T17, FAM19A5 epitope fragment F5, BSA-conjugated (human, conjugated to BSA).
T17 peptide: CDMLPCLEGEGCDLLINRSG
Described as above. How it is done:
as §2, §1

Assay [7] concerns the target T18, FAM19A5 epitope fragment F3, BSA-conjugated (human, conjugated to BSA).
T18 peptide: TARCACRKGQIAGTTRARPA
The description is as above. The procedure:
as §2, §1

Assay [8] addresses T19, FAM19A5 epitope fragment F4, BSA-conjugated (human, conjugated to BSA).
T19 peptide: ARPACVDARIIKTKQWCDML
Described as above. The procedure: as §2, §1

For another assay, the target named is T20, FAM19A5 mutant M4 (human).
T20 chain: T13 chain with C21D, C22S, N23S, K24Q, N25P, A34V, R35K, A37S, R39F, K40P
The assay can be described thus: ELISA on phage-expressed FAM19A5 mutants M1-M8.

The target of the next assay is T21, FAM19A5 mutant M6 (human).
T21 chain: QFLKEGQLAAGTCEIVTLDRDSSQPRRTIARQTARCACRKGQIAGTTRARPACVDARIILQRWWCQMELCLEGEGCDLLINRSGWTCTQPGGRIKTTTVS
As to the kind of experiment: ELISA on phage-expressed FAM19A5 mutants M1-M8.

In the next assay the target is T22, FAM19A5 mutant M7 (human).
T22 chain: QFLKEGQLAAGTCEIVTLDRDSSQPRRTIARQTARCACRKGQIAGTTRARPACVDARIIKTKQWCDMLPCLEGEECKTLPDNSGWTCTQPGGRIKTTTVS
As to the kind of experiment: ELISA on phage-expressed FAM19A5 mutants M1-M8.

For another assay, the target named is T23, FAM19A5 mutant M1 (human).
T23 chain: T13 chain with I15V, V16I, T17A, L18A, D19H, C21D, C22S, N23S, K24Q, N25P
As to the kind of experiment: ELISA on phage-expressed FAM19A5 mutants M1-M8.

For a further assay, the target named is T24, FAM19A5 mutant M8 (human).
T24 chain: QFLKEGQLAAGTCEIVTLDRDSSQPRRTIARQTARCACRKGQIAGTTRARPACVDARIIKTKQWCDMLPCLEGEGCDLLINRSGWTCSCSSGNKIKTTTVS
As to the kind of experiment: ELISA on phage-expressed FAM19A5 mutants M1-M8.

The next assay concerns the target T25, FAM19A5 mutant M3 (human).
T25 chain: T13 chain with C21D, C22S, N23S, K24Q, N25P, R27I, T28E, I29E, A30R, R31S
The assay can be described thus: ELISA on phage-expressed FAM19A5 mutants M1-M8.

Substitutions are numbered along the chain they refer to. Ends that are not written are not given here.

B1: Anti-FAM19A5 antibody 1-28 (antibody, V domains shown)
VH: AVTLDESGGGLQTPGGALSLVCKASGFDFSDYGMGWVRQAPGKGLEWVAAIRSDGSNPSYGSAVKGRATISKDNGRSTVRLQLNNLRAEDTATYYCAKDGNGYCALDAYRSGGYSCGVYPGSIDAWGHGTEVIVSS
VL: ALTQPSSVSANLEGTVEITCSGSGYGYGWYQQKSPGSAPVTVIYQNDKRPSDIPSRFSGSKSGSTGTLTITGVQVEDEAVYYCGSEDSSTLAGIFGAGTTLTVL
For B1, the binding result (in [1]; with F2-04-BSA (#4); in the assay with F2-06-BSA (#6); with F2-10-BSA (#10); with F2-12-BSA (#12); with F2-09-BSA (#9)) was “binds” each time. Further, the binding result in the assay with F2-01-BSA (#1), with F2-05-BSA (#5), with F2-13-BSA (#13), in the assay with F2-08-BSA (#8), with F2-02-BSA (#2) and with F2-07-BSA (#7) was “binds” in each case. In the assay with FAM19A5 mutant M2, the binding result is recorded as “no binding”.

B2: Anti-FAM19A5 antibody 2-13 (antibody, V domains shown)
VH: AVTLDESGGGLQTPGGALSLVCKASGFTFSSHGMFWVRQTPGKGLEYVAEITNDGSGTNYGSAVKGRATISRDNGQSTVRLQLNNLRAEDTGTYFCARSTYECPGGFSCWGDTGQIDAWGHGTEVIVSS
VL: ALTQPSSVSANPGETVKITCSGGSYSYGWFQQKSPGSALVTVIYWDDERPSDIPSRFSGALSGSTNTLTITGVQADDEAVYFCGTEDISGTAGVFGAGTTLTVL
notes: also called clone 2-13
In the case of B2, the Kd in assay [2] was 1 nM. The binding result in assay [3], in [4], in assay [5], in assay [6], in assay [7] and in assay [8] was “no binding” each time. The binding result with FAM19A5 mutant M4 was “no binding”; with FAM19A5 mutant M6 it was “binds”; in the assay with FAM19A5 mutant M7 it was “binds”; with FAM19A5 mutant M1 it was “binds”; in the assay with FAM19A5 mutant M8, “no binding”; with FAM19A5 mutant M3, “binds”. Also, the binding result with FAM19A5 mutant M2 is “binds”.
